Data from the DeepSol protein solubility set.

Assay: soluble on expression in E. coli; label from the status in PepcDB or PDB records
With “MSLDGQEAAGILERARASVDPELRRAVDSLPGSMRRIALHHFGWEHADGTPAAGNAGKAIRPALVLAAVRALGGPQSSAVRAAAAVELIHNFTLLHDDVMDRDTTRRHRPTAWTVFGDADAILAGDALQALAHRLLAEDPHPASAAAAARLAACVIELCAGQHADTAMERRGPGEVTLDECLAMAEAKTGALLGCACALGALYAGAEEEDVEALDAFGREAGLAFQLIDDVIGIWGDPSRTGKPAGADLMARKKSLPVVAALAAGTPAAAELAELYAVPHQEGELERTVLAVERAGGRDWAQQQAADRMARAMHELSRAIPDPEAAGGLLALAEFVTRRSNEGHHHHHH” the “soluble on expression in E. coli” value was “soluble”. With “MRAQDLPPLPETPGVYLWKRGEEVLYVGKAKSLRARVKSYFHAEGKARRIAEEATGLDFIATRDEVEALLLEANLIKAHRPLYNVLLKDDKHYPFLKLTNEPFPTLLVVRRVEEDGAKYYGPFPEAGALRRIKTLIDRLFPLRKNSGYPMKRRRYPCLNYSMGRCLAPCVGKADPEAYQEVVRQVEAVLEGRVDGLLQELEAKMREAARRLEFERAAEIRDQMEALRAFFSTDQQAFDPEMGDLDFLGMARSGALAVVQLYQVRSGRILGRISRVVEKEEATDEEILWAFLRDHYLEASPLPPLVLLPFPLEDLESLAELLKRRAGRKVELRVPKKGEKARLLELAERNARLALETELKLRERRGEHPALKALQDLLGLPARPWRLEGYDISHLQGQARVFSIAVFEGGRPKRQEYRRMRLKAGNDDYAAMEEGVFRRYTGSLKDLPLPDLLLIDGGVGQVRAAARALERAGLRLPLVGLAKGEEVLVTPEGRELRLPLTHPALQLLIHLRDEAHQNGLRYHRKRRSEELFRVLQGIPGIGEKRRRLLLERYGGLRALKEAPLEELARLPGMSLEAARALKAALAEEEPA” the “soluble on expression in E. coli” value was “soluble”. For “MKDWFMNLLYYLKRPFIRLSRFRYRCGYGVHSPFAFSLITDVIYEKMPYYAYDLLKVEQKKRITTQRWEKGIPRINRLLFRLVNKVQPATIIEVGQPSAASLYLQSAKPSAGYLFASDLSELFLDADTPVDFLYLNDYRNPALLEEVFNICSRRTTPNSLFVVHGICYSKAMKNLWKQLQNDERVGITFDLYDAGLLFFDTTKIKQHYIVNF”, the “soluble on expression in E. coli” value was “not soluble”. In the case of “MEEYKLSHLKELEAESIHIIREVAAEFENPVMLYSIGKDSSVMVRLAEKAFYPGKVPFPLMHIDSKWKFKEMIQFRDEYAKKHGWNLIVESNMEAFHAGVGPFTHGSKVHTDLMKTQALLHALDKYKFDAAFGGARRDEEKSRAKERIFSFRDKFHQWDPKNQRPELWDIYNARVHKGESIRVFPISNWTELDIWQYIRLENIPIVPLYYAKERPVINLDGNIIMADDDRLPEKYRDQIEMKMVRFRTLGCWPLTGAVESGAATIEEIVEEMMTTTKSERTTRVIDFDQEGSMEQKKREGYF”, the “soluble on expression in E. coli” value is reported as “not soluble”. In the case of “MGSDKIHHHHHHVFAGFDYGSANCAMAVCEGDSVRLLPIGDSGGQYLMSVVYALDVSFITEAVCQRLPDNQARALVQKRGAELARARRMRQELDLTATDDTVFIGEAALKAYLDTPEEGFFVRSPKSFLGATGLRPEQVALFEDIVTLMMLEVKGRADALLQNPVTHAVIGRPVNFQGIGGEEANIQAQSILQIAAMRAGFTQVSFLFEPLAAAFDFESSLEADKRVLVVDVGGGTTDCSLVTMGPNKRSQTERSEDCLGHSGQRIGGNDLDIALAMECLMPHYGLGDMLSTGKPMPRQMFWQAVAINDVGAQRDFFSLSYATAIKELRKDAINPDALDRLARLRRDQQHCQLVKLAELAKIDLSGEELTQVEHPDGAHTSVAADAFGLAIAPLVQRIGELMRAAVGDESSPDLIYVTGGSSRCPQVASSIAAVYPGVEVVQGDSFGSVTAGLARRAALEFA”, the “soluble on expression in E. coli” value is reported as “not soluble”. For “ASMGKSAVIFVERATPATLTELKDALSNSILSVRDPWSIDFRTYRCSIKNLPADVSKLMYSITFHHHGRQTVLIKDNSAMVTTAAAADIPPALVFNGSSTGVPESIDTILSSKLSNIWMQRQLIKGDAGETLILDGLTVRLVNLFSSTGFKGLLIELQADEAGEFETKIAGIEGHLAEIRAKEYKTSSDSLGPDTSNEICDLAYQYVRALEL”, the “soluble on expression in E. coli” value was “soluble”. With “MGSDKIHHHHHHMNNTRSAYEKIIKDLQGVGFSDYEAKTYIALLLTPNATAYEISKEAGIPKANCYSVLEALRKNGAVQAVSENPVKYVAVDPNRYFNQMVELTQLRCEDLKESLKNIGHLPQEDLVWSLNDAAAVGLHIEKMIGSARDTIRIKAADTTLEPHLPSLKKAARRGVKVLIILFGEDVRPFELGKNCKVYLHEGNGIRVGISHKLITVTRDYKEALVAEVGRDAYGSYTENKPIVTLADSLLRHEIYFAEIFSCFGDEIQEKFGPALVKLRESYLPADQADALKVFLETADPARLAGKATAA” the “soluble on expression in E. coli” value was “not soluble”. In the case of “FAPLEADHPGRSGLLALLDNPDAYAARALSARMAGRSLDLMYYIWRTDLTGWLLIEELLAAADRGVRVRLLLDDVNVQGFDRAFLALNQHPNVEVRLFNPIRNRGHVLRRTLEMLLGLSRFNRRMHNKAWIADGRLAIVGGRNIGDTYYDAEESGLAMSRDADVMLAGPVVAEVEGLFDSYWNLGLALPILTLWPE”, the “soluble on expression in E. coli” value is reported as “not soluble”. For “MGSDKIHHHHHHMKLYAENILLNDGWASKQTITIEQGIITAVDAGKIEGAEIAKGAVIPGMVNCHSHAFQRAFAGFSEQGSEGQDSFWTWRKIMYQFLAQLTELDAKNIAKQLYIEMLKMGYTRVAEFHYLHHDIDGSTYNSSVTTDKSASLATMAQAIFDAAKESGIGLTLLPVLYQHSGFGEQTPSDGQKRFINSTEQFNQLVSDCFTLSEQYSNTNVGIAPHSLRAVDKTSLLSAVKHVRSLDNQAPIHIHISEQQKEVDDCLAHFGQRPVQWLLDNVELDKHWCLIHATHIDEAERKGIIAKEAIAGICPTTEANLGDGIFPTTEFLADKGTIAIGSDSHISVNPIEELRWLEYAQRLIKQQRAILATDEQASVGQNLWQQAAIGGAQSTNSNTGSLAIGKQADLLVLDKDKTKLFASASQQLLDSMIFASQQNPVSDVMVNGVWQIKAQQHVEQEQASDNFANLLVRLSAS”, the “soluble on expression in E. coli” value was “not soluble”. In the case of “MSLASATDSRYGQKESSDQNFDYMFKILIIGNSSVGKTSFLFRYADDSFTPAFVSTVGIDFKVKTIYRNDKRIKLQIWDTAGQERYRTITTAYYRGAMGFILMYDITNEESFNAVQDWSTQIKTYSWDNAQVLLVGNKCDMEDERVVSSERGRQLADHLGFEFFEASAKDNINVKQTFERLVDVICEKMSESLDTADPAVTGAKQGPQLSDQQVPPHQDCACEGHHHHHH”, the “soluble on expression in E. coli” value is reported as “soluble”. For “MKVFIIGAAGGIGNRLSSLLHARGDAVSGMHRNLEQASKITDTGATAVLGDLIHNSTEELAELFRGHDAIVFSAGAHGTGQENTTLIDGAGLRKAADAASAANVSRFILVSAFPESSRGENTTENFEHYMKVKKSADVYLSHTDLDWVIVRPGVLQDEAGDGLVTAGLAINYGNVARDNVAAFIDEALHQPQLSKIIVELTDGSTPVAEAVERLIKLEHHHHHH”, the “soluble on expression in E. coli” value was “soluble”. With “MSLSIIVQKYGGTSVGSVQRIEHVANRIIATAASGKKVVVVVSAMGKTTDELVGLASEITDEPRKREMDMLLATGEQVTIALLAMALHKRGQEATSLTGWQAGMITESHHGNARILEVERARMDELLDKVHVVIVAGFQGIDQQGEIMTLGRGGSDTSAVAIAAALKAERCEIYTDVTGVFTTDPRVVKQARKLQTISYDEMLEMANLGASVLHPRAVEFAKNYEIPLLVASSMVDEPGTMIEEEGTMEQNLLVRGIAFENDVTKVTVHGLPNEIHTLPTLFAHLSAAGINVDIIIQNQTDSGMAISFSITQSSLKETLARLEELKGELSFQGIDYEEELAKVSIVGSGMVSNPGVAAKMFEILAANDIAIKMVSTSEIKVSAVIDEELMVLAVEMLHEQFKLHEEEPAVAVKVEGHHHHHH” the “soluble on expression in E. coli” value was “soluble”. In the case of “GPGSMTPTRAQLAAFVDHTLLKPEATAADVAALVTEAAELGVYAVCVSPPMVPAAVQAGAGVRVASVAGFPSGKHVSAVKAHEAALAVASGAAEIDMVIDVGAALAGDLDGVRADIAAVRGAVGGAVLKVIVESSALLALADEHTLVRVCRAAEDAGADFVKTSTGFHPSGGASVRAVALMAEAVGGRLGVKASGGIRTAADALAMLDAGATRLGLSGTRAVLDGLG”, the “soluble on expression in E. coli” value is reported as “soluble”. For “MKTLSKQDNTMEWLVKKSCCNKQDNRHVLMLCDAGGAIKMIAEVKSDFAVKVGDLLSPLQNALYCINREKLHTVKVLSASCYSPDEWERQCKVAGKTQ”, the “soluble on expression in E. coli” value was “soluble”. For “MSLKLIVKIGLIVLLLMFNYQGVDADVVSSAIDRYATTTEHQDNMASDHGTLDTMSFTHSLLTGQQQVLAKLMPDDLRIRRAEELQQNFLKILIGRFSLREEILATDRAKIFPSNPIHCVSPACHYFVFTLRRILIEGHHHHHH”, the “soluble on expression in E. coli” value was “not soluble”. With “RKRPLVLTADRGRGKSSALGIACAQLLQHKPLRILLTAPSINAVEPVYQHAQRLLTDAKQMKKDRLEVGYGYIQFIAPDELLSSLPECDLLLVDEAAAIPVPMLKQITEHYHRLVFSSTIHGYEGCGRGFTLKFIEWLQQQRPGMKTYHMQQPIRWSVDDKLEMWLYDAFILN” the “soluble on expression in E. coli” value was “not soluble”. With “MGSDKIHHHHHHMPTGLDCTQTMLYRRFGKTNLHLSVFSLGTMRYLADSENVQQTIATALALGINHIETARGYGKSEEYFGQAIKVGLSVARSQLYVTTKIPPTSDADSMRRYIDESLERLNLDYLDCLGIHGLNTWEHLEWVQAKGGCMKAVEEAINDGRIRHVGFSTHGSLEVIQAAINTDFFEFVNLHYYYFFQRNAPAIKLASEKDMGIFIISPADKGGKLYTAPQTLQDLCQPLSPLELNYRFLLSDQRITTLSVGPATPEELVEPLQVADSCGELTSAEITIFQRLQNHQESVLETDKCSQCYACLPCPENINIPEVLRLRNLAVAYNMTDYGQYRYGMFENAGHWFPGMKANRCTECGDCLPRCPEKLDIPNLLEDAHNRLNGRAGRRLWG” the “soluble on expression in E. coli” value was “not soluble”. With “MSLATFEKQKIEQAIGSIQGALGVLEKGQMTEIMPPKRIQALPIQQNVDTPEAINAFASMITEYSEMTKISDGPAVKMEEAEDGFILSIPSELLFESGSATITNKEGILFLKRTALEINKLSNDMHIKVIGHTDNDRLRPTATYKDNWELSIARGVNVAKMLLEERVNPARISAGGNGEFDPVASNATPEGKAKNRRVDLYFFSVSKNEEEIKKSQKNSEGHHHHHH” the “soluble on expression in E. coli” value was “soluble”. For “MMKGSKSYTEYSSSFSTDEFGYDQNRSNSYNFNGPCINTDPEMKRKKRVASYNLFATEEKLKSTLKNSFKWIKNKFSGDDNSIRYNV”, the “soluble on expression in E. coli” value was “not soluble”. With “AIADFSENASGIPAEELAFPEIIELNVGGQVYITRYLTLTSVPDSLLWKMFSQKSSKDLARDTKGRFFIDRDGFLFRYILDYMRDQQLVLPEHFPEQGRLQREAEFFNLPELVQLLAPKISKQNTLGDDGCQTDQDESSPGANITCNLSSLGAYSSLGAATADGQRSGFITIGCRGSYTLGRDCQTDAKFRRVARIMVCGKTSLAKEVFGETLNESHDPDRQPDRYTSRYYLKFTSLEQAFDRLADAGFHMVACNSTGTCAFAHVQTDDKIWTSYNEYVFYRE” the “soluble on expression in E. coli” value was “soluble”. In the case of “MRADGRSSCELRPVHIHPHYMKHAEGSVLIEIGDTKVICTATVEEKVPSFMRGGGKGWITAEYGMLPRATEQRNVREASKGKVSGRTMEIQRLIGRALRSVVDLEQLGERTIWIDCDVIQADGGTRTASITGAYVALVLALAKLVEEGKLEALPIRDFLAATSVGIDPEHGVILDLDYNEDARAKVDMNVVMTGAGQFVEIQGTGEEAVFSRAELDELLEAAQIGIEQLIAVQRRALGEWAARIGEKKEAAEEDTE”, the “soluble on expression in E. coli” value is reported as “not soluble”. For “MSLADFTHLLRPSNFDELIGQDHLSKDKAPLRVLCQKGVLGHSFFFGPSGTGKTSIARIIAKTMELPFYEFNATSIKIEQLRAIFEQYKNTLQKPLIFIDEVHRLAKNQQEVLLPVMENNSALIIGASTENPFFSLTSAIRSRSMLFELHHISNEALSRLLRRALDSSDITCSDEALEYLIKSSGGDARSMLKLLEFASNIGTHITLDILKSLRPNALSVGSSEAGVHYDLSSAMIKSIRGSDMDAAIYYLARLIDGGESAEFIARRLVILASEDVGNANPQALTLATSAMTSVSKIGYPEARIILSQAVIYLCASPKEGHHHHHH”, the “soluble on expression in E. coli” value was “not soluble”.
